# Reference: the supplement of paper PMC9732359
# ± gives the uncertainty stated by the source.
# Assay: protein stability index of a GFP-peptide fusion (yeast GPS) (PSI 1-4); higher = more stable; sorted into four equal gates, so the index is relative within each strain
# Method in brief: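 For each peptide, the protein stability index sums the read frequency in every gate after multiplying it by the gate number. Read frequencies came from plasmids that were PCR-amplified from each gate and Illumina-sequenced, with reads assigned to strains by barcodes. The gates were four equal bins of GFP/Cherry fluorescence ratio applied to mid-log yeast in leucine-free medium carrying a pooled library of tiled 17-residue yeast protein peptides fused downstream of GFP on a Cherry-expressing plasmid.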
Sequence,protein stability index (doa10∆),protein stability index (pdr5∆),protein stability index (san1∆),protein stability index (ubr1∆)
ELEEQESESERKYDLFQ [SMC2],3.32 ± 0.16,3.28 ± 0.11,3.31 ± 0.068,3.29 ± 0.094
LKFMAASEVATHSKLFA [PRP8],2.91 ± 0.085,3.07 ± 0.082,2.78 ± 0.062,2.7 ± 0.073
YCDSMGRPQRKMMSFQA [RPB5],3.5 ± 0.12,3.19 ± 0.13,3.48 ± 0.058,3.3 ± 0.09
NGLIISWSNGKITSPIR [RRP42],3.12 ± 0.19,2.98 ± 0.14,3.2 ± 0.082,3.39 ± 0.12
GAKVKTMRRQKLTILQE [RET1],1.43 ± 0.088,2.35 ± 0.06,2.05 ± 0.14,2.22 ± 0.086
RRQAVDVSPLRRVNQAI [RPS5],2.63 ± 0.083,2.62 ± 0.094,2.69 ± 0.078,2.75 ± 0.083
TVVQVYDNGQVFPSSIL [RPP0],1.19 ± 0.059,1.29 ± 0.13,,1.29 ± 0.14
KRAEKKAKERLQALKAN [SNF2],2.72 ± 0.12,2.6 ± 0.15,1.73 ± 0.12,1.3 ± 0.048
SQVFGVARIYASFNDTF [RPS14A],2.05 ± 0.062,1.81 ± 0.045,2.11 ± 0.073,2.38 ± 0.056
KDYEAKTKAMSLSIEEN [POP1],2.57 ± 0.13,2.55 ± 0.089,2.28 ± 0.082,2.95 ± 0.083
FKLPKKFPPPTPLLENI [BRR2],2.44 ± 0.062,2.72 ± 0.067,2.31 ± 0.061,2.71 ± 0.048
VVTSSVAESFTDEADSS [SNF2],3.03 ± 0.095,2.98 ± 0.1,3.15 ± 0.075,3.01 ± 0.084
LERVKANAAKRAEAKAQ [RPL21A],3.14 ± 0.097,3.25 ± 0.12,3.36 ± 0.061,3.14 ± 0.11
MSTDSIVKASNWRLVEV [RPL14A],2.82 ± 0.1,1.44 ± 0.13,,1.71 ± 0.087
RCNDNLMRSCFYLMVSS [YJL039C/NUP192],1.46 ± 0.043,1.72 ± 0.054,2.31 ± 0.057,1.1 ± 0.038
GLWGFSTATRNVTMIDD [COR1],3.18 ± 0.083,3.1 ± 0.08,3.02 ± 0.064,2.85 ± 0.066
DFNQAFEGTDDNEEASV [BRN1],3.09 ± 0.14,3.17 ± 0.13,3.39 ± 0.15,3.53 ± 0.12
PVEKVKEHDEIEEQGDA [DPB4],3.19 ± 0.095,3.34 ± 0.12,,3.5 ± 0.11
LYVVGLFDTYHASKAIG [RRP6],1.91 ± 0.045,2.38 ± 0.043,1.88 ± 0.069,2.49 ± 0.035
FEIVDREKNSLESGKET [SMC4],3.31 ± 0.26,3.16 ± 0.18,,
KPLFDFGKTGDQKETKK [YOR098C/NUP1],3.3 ± 0.12,3.6 ± 0.19,2.79 ± 0.22,3.34 ± 0.082
GNKLVELMRIISRNGDT [SMC1],,,,3.28 ± 0.25
RVQVGDIVTVGQCRPIS [RPS11A],3.14 ± 0.16,3.26 ± 0.082,3.07 ± 0.067,3.23 ± 0.074
INSPMPQQAQMQQAQFQ [SNF2],2.98 ± 0.093,2.98 ± 0.089,3.11 ± 0.1,2.98 ± 0.083
SLDLNNLELGGLNMDFL [PGD1],3.24 ± 0.098,3.19 ± 0.099,3.37 ± 0.082,2.74 ± 0.11
RVKAMEVDEKPTETYSD [RPT5],3.46 ± 0.1,3.32 ± 0.075,3.1 ± 0.074,3.12 ± 0.077
KLSKVQLYEDLCRYEDT [MED4],2.88 ± 0.069,3.29 ± 0.12,3.32 ± 0.11,3.21 ± 0.071
IWRKVPGDVLDKDAFIP [SNU114],3.6 ± 0.28,,,

Sequence,protein stability index (doa10∆),protein stability index (pdr5∆),protein stability index (san1∆),protein stability index (ubr1∆)
LGRTGSRGGVTQVRVEF [RPS28A],3.29 ± 0.053,3.19 ± 0.053,3.31 ± 0.047,3.19 ± 0.044
NVVEADLKRFVDESLLS [QCR2],3.14 ± 0.1,3.43 ± 0.1,3.26 ± 0.055,3.46 ± 0.051
TGNGTTTTSNTSGTNIA [YOR098C/NUP1],2.96 ± 0.045,2.69 ± 0.047,2.46 ± 0.056,2.41 ± 0.035
SARSSVHESLVTQSNIL [SRB8],2.77 ± 0.078,3.04 ± 0.076,2.81 ± 0.061,2.83 ± 0.086
VEYNLFTNRSTMMANFE [BRN1],2.11 ± 0.18,2.4 ± 0.18,2.37 ± 0.095,2.65 ± 0.053
NNSSSGMNNASAGLFGS [YGL172W/NUP49],3.18 ± 0.084,3.08 ± 0.051,3.29 ± 0.036,3.35 ± 0.068
ESSKALADSLDRCVDPE [DIS3],2.75 ± 0.084,2.27 ± 0.076,2.29 ± 0.21,2.38 ± 0.19
DGSKMLKRADYTAVDTA [RPN14],3.58 ± 0.12,3.32 ± 0.11,3.53 ± 0.036,3.26 ± 0.079
GLLSQAIGCIERSDLLP [YJR042W/NUP85],2.37 ± 0.07,2.37 ± 0.064,2.43 ± 0.09,2.51 ± 0.069
YKNLDRGFSKDLKSKAD [RRP6],3.05 ± 0.1,3.27 ± 0.15,3.31 ± 0.065,3.53 ± 0.099
NENNSNGGEDTSVENEG [REC8],3.31 ± 0.14,3.44 ± 0.14,3.05 ± 0.15,3.07 ± 0.089
EMGKLRERDITSLFHKF [RRI2],1.8 ± 0.071,1.83 ± 0.071,1.79 ± 0.17,1.95 ± 0.058
PEVSMIRDIREKELKIF [RPB2],3.13 ± 0.15,2.41 ± 0.084,3.38 ± 0.075,2.69 ± 0.13
RMFEKNVMLNIYPRTVI [SKI6],2.21 ± 0.14,1.37 ± 0.11,1.06 ± 0.27,2.24 ± 0.094
INYLLTLAITTVTNSKF [RPN2],2.22 ± 0.062,2.91 ± 0.078,2.1 ± 0.074,2.67 ± 0.067
EDEDDDDDDDEDEEEEE [QCR6],3.06 ± 0.049,3.5 ± 0.12,3.4 ± 0.041,3.84 ± 0.17
KDIIDPKLTSIFERMIE [RPN2],2.68 ± 0.14,2.99 ± 0.11,2.93 ± 0.078,2.66 ± 0.1
TNAKLPNVDLVTALEVL [RGR1],2.09 ± 0.089,2.28 ± 0.052,2.44 ± 0.07,2.26 ± 0.061
LESYLIVHHPYQSLKQI [SSN8],2.33 ± 0.052,2.46 ± 0.059,2.29 ± 0.053,2.38 ± 0.044
NNAKLLTFMTCNSLHIP [ESC2],1.71 ± 0.046,1.72 ± 0.052,1.6 ± 0.079,2.06 ± 0.047
GESIMSEEPTDFGFDLD [MCD1],3.1 ± 0.13,3.25 ± 0.17,3.34 ± 0.072,3.24 ± 0.095
KTCQWYSEHLKPYDINV [DIS3],2.78 ± 0.28,2.95 ± 0.14,2.74 ± 0.094,2.84 ± 0.072
EVSALVRSLPKEEQPKQ [PRP8],1.23 ± 0.075,1.38 ± 0.082,1.26 ± 0.12,1.08 ± 0.051
NIAKDLKWKKGIRGKLV [SMC1],1.37 ± 0.12,2.04 ± 0.14,2.23 ± 0.12,
SIWGNGYSGYGNGITNT [SNF5],3.26 ± 0.1,3.4 ± 0.12,3.35 ± 0.084,3.34 ± 0.051
IYSPEGLRLDGRRWNEL [SKI6],1.42 ± 0.16,1.77 ± 0.19,,
LSSMRFKPSQEPEFHAL [RRI1],2.58 ± 0.053,2.75 ± 0.05,2.75 ± 0.075,2.42 ± 0.04
